The values below come from PMC8787470, “Functional Irreplaceability of Escherichia coli and Shewanella oneidensis OxyRs Is Critically Determined by Intrinsic Differences in Oligomerization” (mBio, 2022).

Data set [1] deals with the molecule itself. Kind of data set: native gel or EMSA; oligomers read from shifted bands of protein on DNA: 10 nM digoxigenin-labelled 188 bp katB promoter probe, various amounts of His6-OxyR variant, 4 mM Tris-HCl pH 8.0, 40 mM NaCl, 4 mM MgCl2, 4% glycerol, poly(dI-dC), room temperature 15 min, 7% native polyacrylamide gel. In general terms: In EMSA bound probe runs differently from free probe, usually more slowly.

Data set [2] deals with the molecule itself. Put plainly: crystal structure; SoOxyR RD C203S crystallised at 20°C by hanging-drop vapor diffusion, 4.0 M ammonium acetate, 0.1 M Bis-Tris propane pH 7.0; six molecules in the asymmetric unit; interfaces listed with PDBePISA.

B1: OxyR_(R288E+F287A) (SoOxyR double point mutant) (natural protein, Shewanella oneidensis, UniProt Q8EHA1 1-304, looked up)
chain: MKNLPSLKNLYYLVNLHQEQNFNRAAKVCFVSQSTLSSGIQNLEEQLGHQLIERDHKSFMFTAIGEEVVQRSRKILTDVDDLVELVKNQGEPMTGDIRLGCIPTIAPFLLSRVVKQCQQAYPEMSLLLKEDTTERLLDALGKGELDLLILALPVDTSGYHSMKVGIDPFKMVIHKDLVGGIHQPIDYQTLPDESIFLLQSEHCITGHAITACQLGDSAKVNPFAATSLHTLVQMVNSKLGTTFLPQMAIDAGILNDTDLVVMTPPGEAPYRDIGLVWRQTTSRILTAETLGLLIQKLLTNETAQ
notes: OxyR of Shewanella oneidensis, the whole protein with two point mutations in helix α10; also called SoOxyR_(R288E-F287A); not shown: His6, N-terminal, kept
What is called stoichiometry N is the number of molecules, sites or subunits per partner or assembly. Take B1: the “stoichiometry N” value in data set [1] was determined as 4.

B2: OxyR^Δ286− (SoOxyR truncation lacking all residues after 286) (domain or fragment, Shewanella oneidensis, UniProt Q8EHA1 1-286, looked up)
chain: MKNLPSLKNLYYLVNLHQEQNFNRAAKVCFVSQSTLSSGIQNLEEQLGHQLIERDHKSFMFTAIGEEVVQRSRKILTDVDDLVELVKNQGEPMTGDIRLGCIPTIAPFLLSRVVKQCQQAYPEMSLLLKEDTTERLLDALGKGELDLLILALPVDTSGYHSMKVGIDPFKMVIHKDLVGGIHQPIDYQTLPDESIFLLQSEHCITGHAITACQLGDSAKVNPFAATSLHTLVQMVNSKLGTTFLPQMAIDAGILNDTDLVVMTPPGEAPYRDIGLVWRQTTSRILT
notes: OxyR of Shewanella oneidensis, C-terminal truncation; the series is defined by SoOxyR^Δ283− (truncation lacking all residues after R283); also called SoOxyR^Δ286−; not shown: His6, N-terminal, kept
Consider B2, for which, in data set [1], the binding result is “binds”.

B3: SoOxyR RD_(C203S) (regulatory domain of Shewanella oneidensis OxyR, residues 91 to 304, C203S) (domain or fragment, UniProt Q8EHA1 91-304, looked up)
chain: EPMTGDIRLGCIPTIAPFLLSRVVKQCQQAYPEMSLLLKEDTTERLLDALGKGELDLLILALPVDTSGYHSMKVGIDPFKMVIHKDLVGGIHQPIDYQTLPDESIFLLQSEHSITGHAITACQLGDSAKVNPFAATSLHTLVQMVNSKLGTTFLPQMAIDAGILNDTDLVVMTPPGEAPYRDIGLVWRQTTSRILTFRTLGLLIQKLLTNETAQ
notes: OxyR of Shewanella oneidensis, regulatory domain (RD), residues 91 to 304 of the full-length protein, locked in the reduced form by C203S; Six molecules in the crystallographic asymmetric unit; also called RD_(C203S) of SoOxyR; SoOxyR^C203S RD
B3: the binding result in data set [2] was “binds”.

B4: OxyR^Δ290− (SoOxyR truncation lacking all residues after 290) (domain or fragment, Shewanella oneidensis, UniProt Q8EHA1 1-290, looked up)
chain: MKNLPSLKNLYYLVNLHQEQNFNRAAKVCFVSQSTLSSGIQNLEEQLGHQLIERDHKSFMFTAIGEEVVQRSRKILTDVDDLVELVKNQGEPMTGDIRLGCIPTIAPFLLSRVVKQCQQAYPEMSLLLKEDTTERLLDALGKGELDLLILALPVDTSGYHSMKVGIDPFKMVIHKDLVGGIHQPIDYQTLPDESIFLLQSEHCITGHAITACQLGDSAKVNPFAATSLHTLVQMVNSKLGTTFLPQMAIDAGILNDTDLVVMTPPGEAPYRDIGLVWRQTTSRILTFRTL
notes: OxyR of Shewanella oneidensis, C-terminal truncation; the series is defined by SoOxyR^Δ283− (truncation lacking all residues after R283); also called SoOxyR^Δ290−; not shown: His6, N-terminal, kept
B4: in data set [1], the “stoichiometry N” value stood at 4.
